Results taken from patent publication US7790365B2, “Assays for modulators of parkin activity using S5a as a parkin substrate” (Elan Pharma International Limited, priority 2007, dated 2010).
Entries after “also recorded” stand apart in the source; their conditions may differ.

B1: His-CHIP: His-tagged carboxyl terminus of Hsp70-interacting protein, U-box E3 ligase (protein)
chain: MKGKEEKEGGARLGAGGGSPEKSPSAQELKEQGNRLFVGRKYPEAAACYGRAITRNPLVAVYYTNRALCYLKMQQHEQALADCRRALELDGQSVKAHFFLGQCQLEMESYDEAIANLQRAYSLAKEQRLNFGDDIPSALRIAKKKRWNSIEERRIHQESELHSYLSRLIAAERERELEECQRNHEGDEDDSHVRAQQACIEAKHDKYMADMDELFSQVDEKRKKRDIPDYLCGKISFELMREPCITPSGITYDRKDIEEHLQRVGHFDPVTRSPLTQEQLIPNLAMKEVIDAFISENGWVEDY
modifications: left off: small tags and cut ends
B2: GST-Siah2: GST fusion of Seven in absentia homolog 2, RING E3 ligase (protein)
chain: MSRPSSTGPSANKPCSKQPPPQPQHTPSPAAPPAAATISAAGPGSSAVPAAAAVISGPGGGGGAGPVSPQHHELTSLFECPVCFDYVLPPILQCQAGHLVCNQCRQKLSCCPTCRGALTPSIRNLAMEKVASAVLFPCKYATTGCSLTLHHTEKPEHEDICEYRPYSCPCPGASCKWQGSLEAVMSHLMHAHKSITTLQGEDIVFLATDINLPGAVDWVMMQSCFGHHFMLVLEKQEKYEGHQQFFAIVLLIGTRKQAENFAYRLELNGNRRRLTWEATPRSIHDGVAAAIMNSDCLVFDTAIAHLFADNGNLGINVTISTCCP
modifications: left off: a dimerising Fc or GST
notes: GST fusion of Seven in absentia homolog 2, RING E3 ligase
B3: GST-Murf1: GST fusion of Muscle-specific RING finger protein 1, RING E3 ligase (protein)
chain: MDYKSSLIQDGNPMENLEKQLICPICLEMFTKPVVILPCQHNLCRKCANDIFQAANPYWTSRGSSVSMSGGRFRCPTCRHEVIMDRHGVYGLQRNLLVENIIDIYKQECSSRPLQKGSHPMCKEHEDEKINIYCLTCEVPTCSMCKVFGIHKACEVAPLQSVFQGQKTELNNCISMLVAGNDRVQTIITQLEDSRRVTKENSHQVKEELSQKFDTLYAILDEKKSELLQRITQEQEKKLSFIEALIQQYQEQLDKSTKLVETAIQSLDEPGGATFLLTAKQLIKSIVEASKGCQLGKTEQGFENMDFFTLDLEHIADALRAIDFGTDEEEEEFIEEEDQEEEESTEGKEEGHQ
modifications: left off: a dimerising Fc or GST
notes: GST fusion of Muscle-specific RING finger protein 1, RING E3 ligase
B4: GST-Nedd4: GST fusion of Nedd4, HECT E3 ligase (protein)
chain: MATCAVEVFGLLEDEENSRIVRVRVIAGIGLAKKDILGASDPYVRVTLYDPMNGVLTSVQTKTIKKSLNPKWNEEILFRVHPQQHRLLFEVFDENRLTRDDFLGQVDVPLYPLPTENPRLERPYTFKDFVLHPRSHKSRVKGYLRLKMTYLPKTSGSEDDNAEQAEELEPGWVVLDQPDAACHLQQQQEPSPLPPGWEERQDILGRTYYVNHESRRTQWKRPTPQDNLTDAENGNIQLQAQRAFTTRRQISEETESVDNRESSENWEIIREDEATMYSNQAFPSPPPSSNLDVPTHLAEELNARLTIFGNSAVSQPASSSNHSSRRGSLQAYTFEEQPTLPVLLPTSSGLPPGWEEKQDERGRSYYVDHNSRTTTWTKPTVQATVETSQLTSSQSSAGPQSQASTSDSGQQVTQPSEIEQGFLPKGWEVRHAPNGRPFFIDHNTKTTTWEDPRLKIPAHLRGKTSLDTSNDLGPLPPGWEERTHTDGRIFYINHNIKRTQWEDPRLENVAITGPAVPYSRDYKRKYEFFRRKLKKQNDIPNKFEMKLRRATVLEDSYRRIMGVKRADFLKARLWIEFDGEKGLDYGGVAREWFFLISKEMFNPYYGLFEYSATDNYTLQINPNSGLCNEDHLSYFKFIGRVAGMAVYHGKLLDGFFIRPFYKMMLHKPITLHDMESVDSEYYNSLRWILENDPTELDLRFIIDEELFGQTHQHELKNGGSEIVVTNKNKKEYIYLVIQWRFVNRIQKQMAAFKEGFFELIPQDLIKIFDENELELLMCGLGDVDVNDWREHTKYKNGYSANHQVIQWFWKAVLMMDSEKRIRLLQFVTGTSRVPMNGFAELYGSNGPQSFTVEQWGTPEKLPRAHTCFNRLDLPPYESFEELWDKLQMAIENTQGFDGVD
modifications: left off: a dimerising Fc or GST
notes: GST fusion of Nedd4, HECT E3 ligase
B5: GST-parkin: GST fusion of parkin, RING class E3 ligase (protein)
chain: MIVFVRFNSSHGFPVEVDSDTSIFQLKEVVAKRQGVPADQLRVIFAGKELRNDWTVQNCDLDQQSIVHIVQRPWRKGQEMNATGGDDPRNAAGGCEREPQSLTRVDLSSSVLPGDSVGLAVILHTDSRKDSPPAGSPAGRSIYNSFYVYCKGPCQRVQPGKLRVQCSTCRQATLTLTQGPSCWDDVLIPNRMSGECQSPHCPGTSAEFFFKCGAHPTSDKETSVALHLIATNSRNITCITCTDVRSPVLVFQCNSRHVICLDCFHLYCVTRLNDRQFVHDPQLGYSLPCVAGCPNSLIKELHHFRILGEEQYNRYQQYGAEECVLQMGGVLCPRPGCGAGLLPEPDQRKVTCEGGNGLGCGFAFCRECKEAYHEGECSAVFEASGTTTQAYRVDERAAEQARWEAASKETIKKTTKPCPRCHVPVEKNGGCMHMKCPQPQCRLEWCWNCGCEWNRVCMGDHWFDV
modifications: left off: a dimerising Fc or GST
notes: GST fusion of parkin, RING class E3 ligase

Assays:
S5a [1] = assay: ubiquitination assay of E3 ligases using S5a as the substrate; format: biochemical; conditions: 0.2 mg/mL E3, 200 nM S5a, 1 hour at 37° C., Western blot
Method: For each E3 ligase, a ubiquitination assay using S5a as the substrate was carried out. Briefly, the ubiquitination reaction contained 50 nM E1, 1 mM MgATP, 5 μM UbcH7, 0.2 mg/mL E3, 200 nM ubiquitin, and 200 nM S5a. Ubiquitination reactions were incubated for 1 hour at 37° C. and samples were taken at time 0, 30′ and 60′. Samples were run on SDS-PAGE, transferred to immobilon and Western blotted using monoclonal antibody to S5a (BioMol).

S5a [2] = assay: thermal denaturation of E3 ligases (S5a ubiquitination after pre-incubation); format: biochemical; conditions: for Thermal Denaturation Temperature (temperature at which approximately 50% of activity was lost): E3 pre-incubated 90 minutes at 4° C. to 60° C., then S5a ubiquitination 60 minutes at 37° C.
Method: To characterize the thermal denaturation properties E3 ligases, the E3 was pre-incubated for 90 minutes at a temperature ranging from 4° C. to 60° C. (Mdm2 and Nedd4 at 4, 37, 45, 50 and 60° C.; Murf1 at 4, 37, 50, 60, 70 and 80° C.; E6AP at 37, 39, 41, 43, and 45° C. At 90 minutes, a pre-mix was made containing 50 nM E1, 1 mM Mg-ATP, 5 μM UbcH7 (UbcH5a for Mdm2 and Murf1), 200 nM ubiquitin and 200 nM S5a. The pre-mix was added to 0.2 mg/mL of E3 ligase and incubated at 37° C. for 60 minutes. Samples were run on SDS-PAGE and assessed by Western blotting using monoclonal antibody to S5a (BioMol).

| Molecule | Ubiquitinated S5a? (S5a [1]) | Thermal Denaturation Temperature (temperature at which approximately 50% of activity was lost) (S5a [2]) [°C] | Thermal Denaturation Temperature (temperature at which approximately 50% of activity was lost) (S5a [2]; listed as E6AP) [°C] | Ubiquitinated S5a? (S5a [1]; listed as CHIP) | Ubiquitinated S5a? (S5a [1]; listed as Siah2) | Thermal Denaturation Temperature (temperature at which approximately 50% of activity was lost) (S5a [2]; listed as Murf1) [°C] | S5a ubiquitination activity after thermal pre-incubation (S5a [2]; E3 pre-incubated 90 minutes at 4, 37, 45, 50 and 60° C.) |
| --- | --- | --- | --- | --- | --- | --- | --- |
| GST-E6AP: GST fusion of Human papillomavirus E6-associated protein, HECT E3 ligase | Yes | 41 | 41 |  |  |  |  |
| B1 | Yes |  |  | reasonable activity |  |  |  |
| B2 | Yes (low) |  |  |  | very low activity |  |  |
| B3 | Yes | 60 |  |  |  | 60 |  |
| B4 | Yes | 37 |  |  |  |  | did not show any activity when pre-incubated at temperatures higher than 4 °C; also recorded: lose activity following pre-incubation at any temperature except 4 °C |
| B5 | Yes | 49 |  |  |  |  |  |
